The data set concerns Escherichia coli TOP10. Nature of the data set: shrunken log2 fold change of peptide-encoding DNA abundance (4.5 h post-induction vs induction); higher = less antimicrobial activity (less host growth inhibition). The settings on record: time post-induction: 4.5 h; library: site-saturation at positions 5, 18, 19, 20.
As for RRIRGRPPRLPRPRPRPITDPRP, the “shrunken log2 fold change” value was 0.0223.

On to RRIRRRPPRLPRPRPRPSSTPRP, for which the “shrunken log2 fold change” value stood at 0.197. Regarding RRIRRRPPRLPRPRPRPMLAPRP, the “shrunken log2 fold change” value is 0.983. Next, RRIRERPPRLPRPRPRPCVCPRP: -0.132; RRIRIRPPRLPRPRPRPSINPRP: -1.03.

Take RRIRWRPPRLPRPRPRPDNKPRP: the “shrunken log2 fold change” value was -0.571.

With RRIRWRPPRLPRPRPRPLWCPRP, the “shrunken log2 fold change” value is 0.149. For RRIRYRPPRLPRPRPRPQMNPRP, the “shrunken log2 fold change” value is -1.27.

Take RRIRKRPPRLPRPRPRPCRYPRP: the “shrunken log2 fold change” value was -0.00884.

With RRIRVRPPRLPRPRPRPYDWPRP, the “shrunken log2 fold change” value was -0.206.

For RRIRVRPPRLPRPRPRPQYDPRP, the “shrunken log2 fold change” value is -0.729. In the case of RRIRGRPPRLPRPRPRPNARPRP, the “shrunken log2 fold change” value came out at 0.501.

Take RRIRERPPRLPRPRPRPPSRPRP: the “shrunken log2 fold change” value is 0.577.

As to RRIRGRPPRLPRPRPRPGYKPRP, the “shrunken log2 fold change” value turned out to be 0.191. As to RRIRLRPPRLPRPRPRPFWPPRP, the “shrunken log2 fold change” value was 0.184. As to RRIRMRPPRLPRPRPRPIASPRP, the “shrunken log2 fold change” value was 0.0465. Consider RRIRQRPPRLPRPRPRPRLVPRP, for which the “shrunken log2 fold change” value was 0.211. As for RRIRNRPPRLPRPRPRPYAEPRP, the “shrunken log2 fold change” value was -0.525. As to RRIRNRPPRLPRPRPRPIWNPRP, the “shrunken log2 fold change” value is -0.146. RRIRGRPPRLPRPRPRPVDVPRP: the “shrunken log2 fold change” value turned out to be 0.447.

Consider RRIRWRPPRLPRPRPRPKPMPRP, for which the “shrunken log2 fold change” value turned out to be 0.171. Consider RRIRLRPPRLPRPRPRPTFTPRP, for which the “shrunken log2 fold change” value is -0.346. Consider RRIRMRPPRLPRPRPRPWNMPRP, for which the “shrunken log2 fold change” value was -0.0747. As to RRIRTRPPRLPRPRPRPKPRPRP, the “shrunken log2 fold change” value came to 0.692.

As for RRIRSRPPRLPRPRPRPSLKPRP, the “shrunken log2 fold change” value came out at 0.0541. The same measure for RRIRKRPPRLPRPRPRPPDKPRP: 0.474; for RRIRERPPRLPRPRPRPYFDPRP: -0.926.

RRIRFRPPRLPRPRPRPGEDPRP: the “shrunken log2 fold change” value is -0.224.

For RRIRQRPPRLPRPRPRPQYEPRP, the “shrunken log2 fold change” value was -0.349. Turning to RRIRCRPPRLPRPRPRPGIEPRP, the “shrunken log2 fold change” value is -0.0627. Next, RRIRERPPRLPRPRPRPWGTPRP: -0.121. The same measure for RRIRDRPPRLPRPRPRPNTIPRP: -0.456; for RRIRRRPPRLPRPRPRPVKHPRP: 0.25; for RRIRLRPPRLPRPRPRPMTFPRP: -0.263. As for RRIRVRPPRLPRPRPRPTMSPRP, the “shrunken log2 fold change” value was -0.194. Consider RRIRRRPPRLPRPRPRPQDWPRP, for which the “shrunken log2 fold change” value amounted to 0.171. RRIRFRPPRLPRPRPRPHSIPRP: the “shrunken log2 fold change” value was -0.248. The same measure for RRIRQRPPRLPRPRPRPQPQPRP: 0.0436; for RRIRWRPPRLPRPRPRPPGKPRP: 0.214; for RRIRKRPPRLPRPRPRPQQWPRP: 0.105. The same measure for RRIRYRPPRLPRPRPRPQGHPRP: -0.17; for RRIRHRPPRLPRPRPRPEIYPRP: -0.413. RRIRSRPPRLPRPRPRPIQRPRP: the “shrunken log2 fold change” value was 0.0978. As for RRIRVRPPRLPRPRPRPLMLPRP, the “shrunken log2 fold change” value is -0.202.

In the case of RRIRWRPPRLPRPRPRPWLYPRP, the “shrunken log2 fold change” value was -0.128. RRIRSRPPRLPRPRPRPGKDPRP: the “shrunken log2 fold change” value stood at 0.099. For the sequence RRIRARPPRLPRPRPRPIALPRP, the “shrunken log2 fold change” value was 0.0719.

As to RRIRMRPPRLPRPRPRPRQRPRP, the “shrunken log2 fold change” value worked out at 1.79.

With RRIRPRPPRLPRPRPRPDVRPRP, the “shrunken log2 fold change” value was determined as 1.79. As to RRIRYRPPRLPRPRPRPLYWPRP, the “shrunken log2 fold change” value is -0.943.

As for RRIRIRPPRLPRPRPRPNKIPRP, the “shrunken log2 fold change” value was -0.634. With RRIRKRPPRLPRPRPRPKRPPRP, the “shrunken log2 fold change” value stood at 0.552. On to RRIRSRPPRLPRPRPRPCQNPRP, for which the “shrunken log2 fold change” value worked out at 0.0167. Regarding RRIRLRPPRLPRPRPRPGIWPRP, the “shrunken log2 fold change” value amounted to 0.355. In the case of RRIRWRPPRLPRPRPRPPLCPRP, the “shrunken log2 fold change” value was 0.668. On to RRIRQRPPRLPRPRPRPCRPPRP, for which the “shrunken log2 fold change” value was -0.184. Turning to RRIRNRPPRLPRPRPRPAQAPRP, the “shrunken log2 fold change” value was -0.0253. The same measure for RRIRPRPPRLPRPRPRPFAQPRP: -0.0885; for RRIRKRPPRLPRPRPRPQCNPRP: -0.0696; for RRIRYRPPRLPRPRPRPMTMPRP: -0.615. RRIRSRPPRLPRPRPRPKMPPRP: the “shrunken log2 fold change” value is 0.0106.

Turning to RRIRMRPPRLPRPRPRPKNDPRP, the “shrunken log2 fold change” value turned out to be 1.05. As to RRIRIRPPRLPRPRPRPGHFPRP, the “shrunken log2 fold change” value was -0.0592. For the sequence RRIRVRPPRLPRPRPRPDNRPRP, the “shrunken log2 fold change” value is -0.00604. For RRIRTRPPRLPRPRPRPGQDPRP, the “shrunken log2 fold change” value is -0.102.

On to RRIRLRPPRLPRPRPRPVDCPRP, for which the “shrunken log2 fold change” value is -0.456. On to RRIRWRPPRLPRPRPRPPYCPRP, for which the “shrunken log2 fold change” value was -0.0779. With RRIRWRPPRLPRPRPRPEGEPRP, the “shrunken log2 fold change” value was 1.27. For RRIRSRPPRLPRPRPRPMRKPRP, the “shrunken log2 fold change” value was determined as 0.853. Regarding RRIRKRPPRLPRPRPRPQRNPRP, the “shrunken log2 fold change” value was found to be 0.0463. The same measure for RRIRYRPPRLPRPRPRPVDEPRP: -0.554; for RRIRIRPPRLPRPRPRPSFPPRP: -0.779. In the case of RRIRIRPPRLPRPRPRPCLMPRP, the “shrunken log2 fold change” value was -0.601.

In the case of RRIRWRPPRLPRPRPRPCTGPRP, the “shrunken log2 fold change” value is -0.0547. The same measure for RRIRYRPPRLPRPRPRPRDSPRP: -0.269.

For the sequence RRIRFRPPRLPRPRPRPFECPRP, the “shrunken log2 fold change” value was -0.0767. Consider RRIRSRPPRLPRPRPRPITGPRP, for which the “shrunken log2 fold change” value was -0.105. RRIRCRPPRLPRPRPRPGVHPRP: the “shrunken log2 fold change” value is -0.108.

RRIRKRPPRLPRPRPRPMVVPRP: the “shrunken log2 fold change” value is -0.0348. RRIRKRPPRLPRPRPRPRGCPRP: the “shrunken log2 fold change” value was found to be 0.128. RRIRWRPPRLPRPRPRPVMLPRP: the “shrunken log2 fold change” value is -0.0383. The same measure for RRIRQRPPRLPRPRPRPWSCPRP: -0.462; for RRIRARPPRLPRPRPRPLVMPRP: 0.0657. In the case of RRIRLRPPRLPRPRPRPDWWPRP, the “shrunken log2 fold change” value stood at 0.0919. On to RRIRMRPPRLPRPRPRPHHHPRP, for which the “shrunken log2 fold change” value was -0.412.

Consider RRIRPRPPRLPRPRPRPNKAPRP, for which the “shrunken log2 fold change” value amounted to 0.0279. In the case of RRIRGRPPRLPRPRPRPEGVPRP, the “shrunken log2 fold change” value was 1.48. Turning to RRIRGRPPRLPRPRPRPNGTPRP, the “shrunken log2 fold change” value was 0.54.

As for RRIRDRPPRLPRPRPRPYEPPRP, the “shrunken log2 fold change” value is -0.017. As to RRIRPRPPRLPRPRPRPMMWPRP, the “shrunken log2 fold change” value came to 0.0433. With RRIRPRPPRLPRPRPRPPCQPRP, the “shrunken log2 fold change” value stood at 0.268.

For the sequence RRIRYRPPRLPRPRPRPCFGPRP, the “shrunken log2 fold change” value is -0.0967. As to RRIRQRPPRLPRPRPRPVAGPRP, the “shrunken log2 fold change” value is 0.0467. For the sequence RRIRDRPPRLPRPRPRPNMAPRP, the “shrunken log2 fold change” value was -0.144.

In the case of RRIRFRPPRLPRPRPRPRMHPRP, the “shrunken log2 fold change” value is -0.0776. On to RRIRCRPPRLPRPRPRPIEDPRP, for which the “shrunken log2 fold change” value is 0.102. The same measure for RRIRMRPPRLPRPRPRPITSPRP: 0.0639; for RRIRIRPPRLPRPRPRPKDFPRP: -0.457. Next, RRIRLRPPRLPRPRPRPHHYPRP: -0.628. Regarding RRIRSRPPRLPRPRPRPCSRPRP, the “shrunken log2 fold change” value is -0.179. Turning to RRIRRRPPRLPRPRPRPETRPRP, the “shrunken log2 fold change” value was determined as 0.644. Turning to RRIRHRPPRLPRPRPRPQWEPRP, the “shrunken log2 fold change” value is -0.0718. Take RRIRTRPPRLPRPRPRPTYFPRP: the “shrunken log2 fold change” value is -0.313.

Turning to RRIRIRPPRLPRPRPRPSGAPRP, the “shrunken log2 fold change” value is 0.0148. As for RRIRKRPPRLPRPRPRPNDHPRP, the “shrunken log2 fold change” value is -0.177. In the case of RRIRPRPPRLPRPRPRPSFNPRP, the “shrunken log2 fold change” value was -0.629. Next, RRIRNRPPRLPRPRPRPCPGPRP: 0.00341.

Regarding RRIRCRPPRLPRPRPRPEWIPRP, the “shrunken log2 fold change” value was -0.151. Next, RRIRIRPPRLPRPRPRPIRGPRP: -0.0199; RRIRWRPPRLPRPRPRPSFHPRP: -0.458. For the sequence RRIRLRPPRLPRPRPRPCPMPRP, the “shrunken log2 fold change” value was -0.444.

As to RRIRQRPPRLPRPRPRPDKAPRP, the “shrunken log2 fold change” value came out at 0.517. Turning to RRIRDRPPRLPRPRPRPYWTPRP, the “shrunken log2 fold change” value was -0.195. Turning to RRIRIRPPRLPRPRPRPWPPPRP, the “shrunken log2 fold change” value was determined as 0.0965.

As for RRIRCRPPRLPRPRPRPHLDPRP, the “shrunken log2 fold change” value is -0.0622.

Turning to RRIRHRPPRLPRPRPRPVCMPRP, the “shrunken log2 fold change” value was -0.0845. In the case of RRIRMRPPRLPRPRPRPTEPPRP, the “shrunken log2 fold change” value was found to be 0.383. In the case of RRIRQRPPRLPRPRPRPRLMPRP, the “shrunken log2 fold change” value is 0.00478. With RRIRMRPPRLPRPRPRPDENPRP, the “shrunken log2 fold change” value came out at 2.68. The same measure for RRIRARPPRLPRPRPRPPPGPRP: 1.16. Consider RRIRFRPPRLPRPRPRPEEYPRP, for which the “shrunken log2 fold change” value is -0.00963. The same measure for RRIRFRPPRLPRPRPRPGWHPRP: 0.277. On to RRIRWRPPRLPRPRPRPCPWPRP, for which the “shrunken log2 fold change” value is -0.0137. Take RRIRLRPPRLPRPRPRPSDQPRP: the “shrunken log2 fold change” value is -0.18. Regarding RRIRFRPPRLPRPRPRPMPKPRP, the “shrunken log2 fold change” value is 0.856.

(Values after the supplement of paper PMC9112550, “Optimization of the antimicrobial peptide Bac7 by deep mutational scanning” (BMC Biology, 2022).)
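Also: peptides expressed intracellularly from a pBAD plasmid library in pooled LB shake-flask culture, induced with 0.3% L-arabinose, DNA abundance read by NGS, three biological replicates, DESeq2 with apeglm shrinkage.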
